From patent US20200069775A1, “BRAIN OSTEOCALCIN RECEPTOR AND COGNITIVE DISORDERS” (The Trustees of Columbia University in the City of New York, priority 2017, published 2020)

Molecular target: T1, Gpr158 (Mus musculus, UniProt Q8C419)
T1 sequence (Q8C419 25-1200): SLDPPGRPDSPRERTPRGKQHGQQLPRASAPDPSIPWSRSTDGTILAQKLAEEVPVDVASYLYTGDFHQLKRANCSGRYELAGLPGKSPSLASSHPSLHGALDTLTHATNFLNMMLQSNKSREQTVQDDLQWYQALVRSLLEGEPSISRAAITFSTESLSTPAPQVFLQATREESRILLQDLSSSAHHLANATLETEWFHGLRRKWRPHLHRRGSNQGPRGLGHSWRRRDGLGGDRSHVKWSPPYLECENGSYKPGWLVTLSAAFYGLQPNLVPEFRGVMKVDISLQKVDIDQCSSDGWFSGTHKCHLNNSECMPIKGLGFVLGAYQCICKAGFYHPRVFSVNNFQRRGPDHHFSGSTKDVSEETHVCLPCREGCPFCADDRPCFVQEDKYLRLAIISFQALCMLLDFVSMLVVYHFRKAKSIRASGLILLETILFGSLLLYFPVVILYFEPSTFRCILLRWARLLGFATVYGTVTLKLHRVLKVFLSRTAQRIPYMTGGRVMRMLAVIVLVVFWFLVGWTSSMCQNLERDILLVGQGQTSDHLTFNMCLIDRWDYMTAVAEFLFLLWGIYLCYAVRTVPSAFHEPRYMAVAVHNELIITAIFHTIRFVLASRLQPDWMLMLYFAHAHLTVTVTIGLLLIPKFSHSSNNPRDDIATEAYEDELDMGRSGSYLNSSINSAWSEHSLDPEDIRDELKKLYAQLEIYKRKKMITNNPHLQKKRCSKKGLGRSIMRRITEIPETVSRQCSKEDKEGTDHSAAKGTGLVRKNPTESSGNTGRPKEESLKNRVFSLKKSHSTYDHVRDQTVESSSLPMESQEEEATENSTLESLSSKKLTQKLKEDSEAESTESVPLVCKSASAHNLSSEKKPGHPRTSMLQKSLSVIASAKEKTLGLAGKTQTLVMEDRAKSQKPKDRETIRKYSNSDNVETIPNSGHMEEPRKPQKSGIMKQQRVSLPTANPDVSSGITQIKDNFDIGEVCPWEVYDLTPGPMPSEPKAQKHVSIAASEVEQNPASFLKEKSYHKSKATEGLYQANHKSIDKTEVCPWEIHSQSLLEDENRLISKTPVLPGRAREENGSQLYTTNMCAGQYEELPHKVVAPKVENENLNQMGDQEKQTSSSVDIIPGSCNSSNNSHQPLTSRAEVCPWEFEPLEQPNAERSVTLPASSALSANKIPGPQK
Experiment: Whole-cell current clamp in CA3 pyramidal neurons of WT and Gpr158−/− hippocampal slices
Type: cell-based
Parameters: visually identified pyramidal neurons in the CA3 area of the hippocampus; from tissue; host or cells: coronal hippocampal slices of 3-4 week old male WT and Gpr158-/- mice
Description: Coronal brain slices containing the hippocampus were prepared from wild type and KO mice (3-4 weeks old, male) as previously reporte. Briefly, mice were anesthetized with isoflurane and then decapitated to harvest brains, which were rapidly removed and immersed in an oxygenated cutting solution at 4° C. containing (in mM): sucrose 220, KCl 2.5, CaCl2 1, MgCl2 6, NaH2PO4 1.25, NaHCO3 26, and glucose 10, and adjusted to pH 7.3 with NaOH. Coronal slices containing the hioopcampus (300 μm thick) were cut with a vibratome, trimmed to contain just the hippocampus. After preparation, slices were stored in a holding chamber with an oxygenated (with 5% CO2 and 95% O2) artificial cerebrospinal fluid (ACSF) containing (in mM): NaCl 124, KCl3, CaCl2 2, MgCl2 2, NaH2PO4 1.23, NaHCO3 26, glucose 10, pH 7.4 with NaOH. The slices were eventually transferred to a recording chamber constantly perfused with ACSF at 33° C. at a rate of 2 ml/min after at least a 1 hour recovery in the storage chamber. […] After a stable base of APs were recorded for 10 minutes, osteocalcin was applied to the recorded cells through bath application at a concentration of 10 ng/ml for 5-10 minutes and then washed out with ACSF. […] Action potentials were detected and analyzed with AxoGraph X and plotted with Igor Pro software (WaveMetrics, Lake Oswego, Oreg.).

## osteocalcin: Recombinant osteocalcin bacterially produced, cleaved from the GST subunit; completely undercarboxylated at all three sites; full-length mouse osteocalcin (YLGASVPSPDPLEPTREQCELNPACDELSDQYGLKTAYKRIYGITI)
WT
  CA3 pyramidal neurons showing the effect on spontaneous AP frequency: 4 of 4 cells
WT hippocampi, 10 ng/ml
  action potential frequency in pyramidal cells of the CA3 region: significantly enhanced the action potential frequency
